{"source": "paper PMC12670495", "target": "ANT4044-DOTA (human)", "sequence (heavy, as listed by the source, chain 1 of 2)": "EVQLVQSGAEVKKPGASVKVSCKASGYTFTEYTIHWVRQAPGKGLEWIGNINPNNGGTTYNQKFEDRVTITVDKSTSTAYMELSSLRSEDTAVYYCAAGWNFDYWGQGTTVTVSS", "sequence (light, as listed by the source, chain 2 of 2)": "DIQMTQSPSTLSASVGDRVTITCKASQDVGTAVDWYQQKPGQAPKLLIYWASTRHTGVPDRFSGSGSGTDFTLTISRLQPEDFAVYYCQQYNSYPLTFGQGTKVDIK", "experiment": "SPR; Biacore T200, single-cycle kinetics, 25 °C, HBS-EP+; antibody-DOTA captured on a Protein G chip (~50 RU); PSMA as analyte, three-point 2-fold dilution 12.5-50 nM, 40 uL/min; association 200 s, dissociation 1500 s; Langmuir 1:1 fit"}
{"substance": "cynomolgus PSMA (natural protein)", "values": [{"measurement": "Kd", "result": 2.68, "unit": "nM"}, {"measurement": "koff", "result": 0.000187, "unit": "s⁻¹"}, {"measurement": "kon", "result": 69700, "unit": "M⁻¹ s⁻¹"}]}
